Assay: yeast display, Sf9 membrane polyspecificity reagent, FACS + sequencing; frameworks hold sequencing errors
Procedure, shortened: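 Polyreactivity labels are assigned by the sorting gate from which each nanobody was recovered. The gates were low and high (top ~1%), set on anti-HA fluorescence for expression and streptavidin fluorescence for reagent binding. Before sorting, galactose-induced (36–48 hours) yeast display cells were stained for 1 hour at 4 °C with 10% biotinylated, detergent-solubilized Sf9 membrane reagent.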

Sequence	polyreactivity (PSR sort gate)
QVQLVESGGGLVQAGGSLRLSCAASGSTFVRYAMGWYRQAPGKERELVAAIRGGGGTYYADSVKGRFTISRDNAKNTVYLQMNSLKPEDTAVYYCAADTYYYYWFAGYTEYDYWGQGTQVTVSS	low polyreactivity
QVQLVESGGGLVQAGGSLRLSCAASGRIFTFNAMGWYRQAPGKERELVAAIRRGGGRTYYADSVKGRFTISRDNAKNTVYLQMNSLKPEDTAVYYCAAPFYRQSLIEYDYWGQGTQVTVSS	high polyreactivity
QVQLVESGGGLVQAGGSLRLRCASSGGIFVPYAMGWYRQAPGKERELVAGITSGGSTNYADSVKGRFSISRDNAKNTVYLQMNRLKPEDTAVYYCAARRRPGGRYKSRVWYDYWGLGTQVTVSS	high polyreactivity
QVQLVESGGGLVQAGGSLRLSCASSGSIFALNAMGWYRQAPGKERELVAAISSSGGNTYYADSVKGRFTISRDNAKNTVYLQMNSLKPEDTAVYYCNRVAYRNDFDYWGQGTQVTVSS	low polyreactivity
QVELVESCGGLVQAGGSLRLSCAASGSTFTRNGMGWYSLAPGKEREMVAAISSGGSTNYADSVKGRFTISRDNAKNTVDFQKNSLQPEDTAVYYCAVDYRHSSSWNAGPWQMYYWGQGTQVTVSS	low polyreactivity
QVQLVESVGGLVQAGGSLRLSCAASGFTFGRYAMGWYRQAPGKESELVATITRTGSTNYADSVKGRFTISRDNAKNTVYLQMNSLKPEDTAVYYCAKDWAYRRHWVGFYYWGLGTQVTVSS	low polyreactivity
QVQLVESGGGLVQAGGSLRLSCAASGRTFDFYAMGWYRQAPGKERELVAAISSRGGSTYYADSVKGRFTISRDNAKNTVYLQMNSLKAEDTAVYYCAKDLGYRGRYNYWGQGTQVTVSS	low polyreactivity
QVQLVESGGGLVQAGFSLRLSCAASGFTFKYYAMGWYRQAPGKERELVAAISSGGSTYYADSVKGRFTISRDNAKNTVYLQMNSLKPEDTAVYYCNRRFAPFWGRYGYWGQGTKVTVSS	high polyreactivity
QVQLVESGGGLVQAGGSLRLSCAASGSILQVYAMGWYRQAPGKERELVAGISWGGGRTYADSVKGRFTISRDNAKNTVYLQMISLKPEDTAVYYCNKVWRFGYYGSYYWGQGTLVTVSS	high polyreactivity
QVQLVESGGGLVQAGGSLRLSCAASGRTFLYYAMGWYRQAPGKERELVAAISSGADSTYYADSVKGRFTISRDNAKNTVYLQMNSLKPEDTAVYYCAAGGSHDGVWDDYWGQGTQVTVSS	high polyreactivity
QVQLVESGGGLVQAGGSLRLSCAASGITFPANAMGWYRQAPGKERELVAAISSSGGSTYYADSVKGRFTISRDNAKNTVYLQMNSLKPEDTAVYYCAAYYGPSRSLYYYWGQGTQVTVSS	high polyreactivity
QVQLVESGGGLVQAGGSLRLSCAASGFIFASNAMGWYTQAPGKERELVASITIGDSTYYADSVKGRFTISRDNAKNTVYLQMNSLKPEDTAVYYCAAVKTVDVGYDYWGQGTQVTVSS	low polyreactivity
QVQLVESGGGLDQAGGSLRLSCAASGFIFYYYAMGWYRQAPGKEREFVAGISRRGGSSYYADSVKGRFTISRDNAKNTVYLQMNSLKPEDTAVYYCIVDFHWQRFHHKSAAYDYWGQGTQVTVSS	high polyreactivity
QVQLVESGGGLVQAGGSPRLSCAASGRTFRSNAMGWYRQAPGKERELVAAISWSGGSTYYADSVKGRFTISRDNAKNTVYLQLNSLKPEDTAVYYCAAGSYWSPYGQSFWPKYDYWGQGSQVTVSS	high polyreactivity
QVQLVESGGGLVQAGGSLRLSCAASGLTFYYNAMGWYRQAPGKERELVAAISFSGGRTYYADSVKGRFTISRDNAKNTVYLQMNSLKPEDTAVYYCAADWVRNWYTSGSWGQGTQVTVSS	high polyreactivity
QVQLQESGGGPVLAGCSLRLSCAASGTIFVRLDMGWYRQAPGKEREFVATIGSGSSTYYADSVKGSFTISRDNVKNTVYLQMNSLKQEDTAVYYCAVSAAEQSRHYYWDQGTQVTVSS	low polyreactivity

Sequence	polyreactivity (PSR sort gate)
QVQLVESGGGLVQAGGSLRLSCAASGIIFGYYAMGRYRQAPGKERELVAAITWSGGSTYYADSVKGRFTISRDNAKNTVYLQMNSLKPEDTAVYYCAAGDPTLLNESFDYWGQGTQVTVSS	low polyreactivity
QVQLVESGGGLVQAGGSLRLSCAASGSIFQRNAMGWYRQAPGKERELVAAISWSGGSTYYADSVKGRFTISRDNAKNSVSLQMNSVKPEDTAVYYCARYYRPYDWGQGTQVTVSS	high polyreactivity
QVQLVESGGGLVQAGGSLRLSCAASGIIFWDYAMGWYRQAPGKEREFVAAINTSGGTTTYADSVKGRFTISRDNAKNTVYLQMNSLKPEDTAVYNCAADPWGYYSYAYYYWGQGTQVTVSS	low polyreactivity
QVQLVESGGGLVQAGGSLRLSCAASGRTFGVNAMGWYRQAPGKEREFVAAITWSGGSTYYADSVKGRFTISRDNAKNTVYLQMISLKPEDTAVYYCAAVQWRYDGSFTGYGYWGQGTQVTVSS	low polyreactivity
QVQLVESGGGLVQAGGSLRLSCAASGNIFYNVMGWYRQAPGKERELVAVISSGDSTYYADSVKGRFTISRDNAKNTVYLQMNSLKPEDTAVYYCNAQWITSAYLLYSYDYWWGYDYWGQGTQVTVSS	high polyreactivity
QVQLVESGGGLVQAGGSLRLSCAASGSTFTVNCMGWYRQAPGKERELVASITWSGGSTYYADSVKGRFTISRDNAKNTVYFQMNSLKPEDTAVYYCAADEKLYITGYDYWGQGTQVTVSS	low polyreactivity
QVQLVESGGGLVQAGGSLRLSCAASGSTFPYYGLGWYRQAPGKERELVAVISRRGTGTYYADSVKGRFTISRDNAKNTVYLQMNSLKPEDTAVYYCATAGYFIYWGQGTQVTVSS	low polyreactivity
QVQLVESGGGLVQAGGSLRLSCAASGRIFGLYAMGWYSQAPGKERELVAAISRGGGSTYYSDSVMGRFTISRDNAKNTVYLQMKSLKPEVTAVYYCATGLGYFSRLDYWGQGTQVTVSS	low polyreactivity
QVQLVESGGGLVQAGGSLRLSCAASGRNFQVYAMGWYRQAPGKERELVAAISFSGDRTYYADSVKGRFTISRDNAKNTVYLQMNSLKPEDTAVYYCSADGFVYDLRARPGWVDYWGQGTQVTVSS	low polyreactivity
QVQLVESGGGLVQAGGSLRLSCAASGFTFGSYVMGWYRQAPGKERELVADISIRGGSTYYADSVKGRFTISRDNAKNTVYLQMNSLKPEDTAVYYCNADPAFYYWEGIVGGADYDYWGQGTQVTVSS	low polyreactivity
QVQLVESGGGLVQAGGSLRLSCAASGLTLPWYAMGWYRQAPGKERELVAAITWDGTRTYYADSVKGRFTISRDNAKNTVYLQMNSLKPEDTAVFYCNARRVRGTFYRSGVVGYSYWGHGTQVTVSS	high polyreactivity
QVQLVESGGGLVQAGGSLRLSCAATGSTFIGYAMGWYRQAPGKETELVAAISEIGGSTYYADSVKGRFTISRDNAKNTVYLKMNSLKPEDTAVDYCAATEVYLYFWYGYEYWGQGTQVTVSS	low polyreactivity
QDQLVESGGGLVQAGGSLRLSCAASGFTFNANAMGWYRQAPGKERELVAAITRSGGRTYYADSVKGRFTISRDNAKNTVYLQMNSLKPEDTAVYYCANLVTNGRYDSWGQGTQVTVSS	high polyreactivity
QVQLVESGGGLVQAGGSLRLSCAASGFTFGNSALGWYRLAAGKERELVAAISRSGGRTYYADSVKGSFTISRDNAKNTVYLQMNSLKPEVTAVYYCARLLLSPQYGYWGQGTQVTVSS	high polyreactivity
QVQLVESGGGLVQAGGSLRLSCAASGRIFRVYTMGWYRQAPGKERELVAGITWDGGGTYYADSVKGRFTISRDNAKNTVYLQMNSLKPEDTAVYYCNAVVQGFYLAWLYTLDSWGQGTQVTVSS	low polyreactivity

Source: the nanobody polyreactivity screen of Harvey et al. (2022)
